Data as given in the supplement of paper PMC9732359.
± gives the uncertainty stated by the source.

Assay: protein stability index of a GFP-peptide fusion (yeast GPS) (PSI 1-4); higher = more stable; sorted into four equal gates, so the index is relative within each strain
Procedure, shortened: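 Peptides tiling yeast proteins in 17-residue segments were fused downstream of GFP, with Cherry expressed from the same plasmid. As a pooled library in yeast, mid-log cultures grown in leucine-free medium were sorted into four equal gates by GFP/Cherry fluorescence ratio. Gate plasmids were PCR-amplified and Illumina-sequenced, and barcodes linked reads to strains. Each peptide received a protein stability index equal to the sum of each gate's read frequency times its gate number.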

Row | Sequence | protein stability index (doa10∆) | protein stability index (pdr5∆) | protein stability index (san1∆) | protein stability index (ubr1∆)
1 | FNSVKSFDEWFNTPFAN [SNF2] | 2.9 ± 0.091 | 3.14 ± 0.082 | 3.43 ± 0.085 | 3.26 ± 0.11
2 | QSNYGIYSSDAQGDPNL [NUT1] | 3.03 ± 0.077 | 2.92 ± 0.065 | 2.51 ± 0.056 | 3.06 ± 0.063
3 | QPGYADLEHKEDCVEEF [QCR6] | 2.42 ± 0.058 | 2.56 ± 0.068 | 2.52 ± 0.074 | 2.68 ± 0.044
4 | VQVGPMKVFVTKHLMPQ [RPB7] | 2.54 ± 0.047 | 2.37 ± 0.041 | 2.14 ± 0.062 | 2.52 ± 0.042
5 | GLHSSEYKLRSLTLSFI [ECM29] | 2.18 ± 0.057 | 2.21 ± 0.061 | 2.41 ± 0.066 | 2.46 ± 0.049
6 | IGQIIFSVRTKDSNKDV [RPL10] | 2.18 ± 0.05 | 2.49 ± 0.048 | 2.21 ± 0.065 | 2.79 ± 0.051
7 | ESGLVNADLDVKDELMF [RPO21] | 3.16 ± 0.059 | 3.27 ± 0.06 | 3.23 ± 0.059 | 3.3 ± 0.038
8 | ETIQADLNHVTEELQTQ [SMC2] | 3.21 ± 0.14 | 3.21 ± 0.06 | 3.02 ± 0.066 | 3.01 ± 0.1
9 | FNQEGDYNFKYGIPLEF [PRP8] | 3.14 ± 0.084 | 3.11 ± 0.077 | 1.92 ± 0.076 | 3.37 ± 0.077
10 | YSKIPNILSNKPGQNNR [RRP6] | 2.16 ± 0.087 | 2.37 ± 0.074 | 1.99 ± 0.16 | 1.77 ± 0.047
11 | GNSGVVRATFRNNLPAK [RPL33A] | 2.88 ± 0.085 | 3.17 ± 0.12 | 3.19 ± 0.099 | 3.22 ± 0.067
12 | MLVKAVANSTKAAFIRV [RPT3] | 1.97 ± 0.05 | 1.5 ± 0.047 | 1.38 ± 0.11 | 1.27 ± 0.036
13 | SSNIVNENDSQAIITER [YIL149C/MLP2] | 3.14 ± 0.12 | 2.93 ± 0.086 | 2.07 ± 0.26 | 2.86 ± 0.057
14 | IIPTTLEEQQQLEDESS [YML103C/NUP188] | 1.88 ± 0.081 | 1.66 ± 0.08 | 2.67 ± 0.081 | 2.86 ± 0.099
15 | RYEEFADKVKLGRVRNH [RPC40] | 2.93 ± 0.064 | 2.99 ± 0.074 | 3 ± 0.068 | 2.96 ± 0.056
16 | DLFSNNNYNSRIQLMND [MED1] | 3 ± 0.2 | 2.9 ± 0.25 | 2.93 ± 0.11 | 3.06 ± 0.13
17 | ERSLAVKYINFGKTVKD [RPC31] | 3.09 ± 0.088 | 3.18 ± 0.1 | 2.99 ± 0.046 | 2.88 ± 0.058
18 | EQRHLKRELKRAQEEVK [RPT3] | 3.13 ± 0.077 | 3.37 ± 0.12 | 2.95 ± 0.089 | 3.17 ± 0.078
19 | GKLKRCSRCGSVTRAGN [SIN4] | – | – | – | 3.34 ± 0.16
20 | ERQQENLLIQRLNFNQN [SWI3] | 3.26 ± 0.071 | 3.38 ± 0.073 | 3.2 ± 0.042 | 3.19 ± 0.055

Row | Sequence | protein stability index (doa10∆) | protein stability index (pdr5∆) | protein stability index (san1∆) | protein stability index (ubr1∆)
21 | TKIKPFIKVVNYNHLLP [RPL27A] | 2.49 ± 0.072 | 2.35 ± 0.094 | 2.77 ± 0.093 | 2.64 ± 0.11
22 | GILGNKAQAKMDKRAKN [RPL8A] | 3.59 ± 0.12 | 3.51 ± 0.14 | 3.41 ± 0.057 | 3.63 ± 0.076
23 | GSDEAYVKDARKDTVSR [RPC40] | 3.23 ± 0.11 | 3.17 ± 0.12 | 3.13 ± 0.061 | 3.35 ± 0.13
24 | NGNITYSEEPREKVRKL [FAS2] | 2.99 ± 0.17 | 3.54 ± 0.18 | 3.3 ± 0.2 | 3.53 ± 0.18
25 | RTLTAVHDKILEDLVFP [RPS7A] | 3.24 ± 0.13 | 3.15 ± 0.073 | 3.28 ± 0.059 | 3.25 ± 0.098
26 | FDNKSTSEEQEALLRSL [SNF2] | 3.32 ± 0.072 | 3.6 ± 0.18 | 2.68 ± 0.26 | 2.73 ± 0.2
27 | NFLVFQGDVEQIAAQSP [SMC1] | 2.49 ± 0.1 | 2.51 ± 0.092 | 2.68 ± 0.14 | 2.61 ± 0.094
28 | IEAASTTQDQCKLTLDI [RPB8] | 2.92 ± 0.06 | 3.12 ± 0.077 | 2.81 ± 0.042 | 3.07 ± 0.078
29 | DQNEFLLERTREIHNEA [FAS2] | 3.12 ± 0.092 | 3.13 ± 0.08 | 2.99 ± 0.063 | 3.08 ± 0.067
30 | QMDGFDNLGQTKIIMAT [RPT4] | 3.54 ± 0.091 | 3.55 ± 0.11 | 3.66 ± 0.082 | 3.48 ± 0.098
31 | NIVQVFKKAAPSPISHV [RPB2] | 2.2 ± 0.11 | 2.33 ± 0.071 | 2.16 ± 0.075 | 2.09 ± 0.043
32 | GASVISLTKDKSIRKDT [SIR4] | 3 ± 0.065 | 3.23 ± 0.055 | 3.06 ± 0.076 | 3.13 ± 0.072
33 | LLKKIIFEKELMYQIKK [SRB4] | 2.8 ± 0.073 | 2.67 ± 0.083 | 2.32 ± 0.09 | 2.17 ± 0.05
34 | NAEVVAGNIKCRNDAVN [BRR2] | 2.77 ± 0.11 | 3.67 ± 0.16 | 3.05 ± 0.087 | 2.86 ± 0.14
35 | AELNLPTVDEQRQYKVQ [SNF11] | 3.22 ± 0.081 | 3.3 ± 0.08 | 3.12 ± 0.092 | 3.31 ± 0.067
36 | TISEKEQDILDLIAEQV [SSN2] | 3.08 ± 0.14 | 3.25 ± 0.15 | 3.05 ± 0.12 | 2.97 ± 0.13
37 | VHNTNSFIISSLDTLEL [NUT1] | 2 ± 0.076 | 2.34 ± 0.067 | 1.99 ± 0.086 | 2.54 ± 0.07
38 | GYYVGYKATATGPKQQE [SCL1] | 3.1 ± 0.12 | 3.2 ± 0.088 | 3.02 ± 0.12 | 3.25 ± 0.14
39 | IERLTKRQFNNSYWLII [ITC1] | 3.01 ± 0.077 | 2.62 ± 0.099 | 2.16 ± 0.097 | 2.13 ± 0.071
40 | IELIDYDKLPAGQNATV [RET1] | 2.41 ± 0.074 | 1.95 ± 0.079 | 1.67 ± 0.2 | 2.4 ± 0.068
